Assay results: doi:10.1101/477745, “The (p)ppGpp-binding GTPase Era promotes rRNA processing and cold shock survival in Staphylococcus aureus” (bioRxiv, 2019)

T1: Era fused to SB (small bit of luciferase) (S. aureus, UniProt Q2FGF6 1-299)
T1 construct: GTPase Era, Staphylococcus aureus; For the Era-Era pair the second copy of Era was fused to the large bit (LB); also called EraSB; full-length Era; source: S. aureus LAC*, expressed from pAP118 with Atet, in cells
T1 sequence (looked up): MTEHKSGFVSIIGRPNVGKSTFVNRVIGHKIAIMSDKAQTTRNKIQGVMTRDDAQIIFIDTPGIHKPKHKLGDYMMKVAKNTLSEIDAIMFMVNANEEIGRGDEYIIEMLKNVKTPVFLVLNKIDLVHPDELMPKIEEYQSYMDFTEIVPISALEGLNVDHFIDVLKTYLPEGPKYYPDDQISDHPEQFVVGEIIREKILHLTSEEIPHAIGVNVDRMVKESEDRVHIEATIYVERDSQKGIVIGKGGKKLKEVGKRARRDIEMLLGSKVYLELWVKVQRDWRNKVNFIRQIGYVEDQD

B1: His-tagged Era (natural protein, S. aureus, UniProt Q2FGF6 1-299, looked up)
chain: T1 sequence (looked up)
notes: GTPase Era, Staphylococcus aureus; also called His-Era; recombinant Era
B2: full-length CshA fused to LB (large bit of luciferase) (natural protein, S. aureus, UniProt Q2FF45 1-506, looked up)
chain: MQNFKELGISDNTVQSLESMGFKEPTPIQKDSIPYALQGIDILGQAQTGTGKTGAFGIPLIEKVVGKQGVQSLILAPTRELAMQVAEQLREFSRGQGVQVVTVFGGMPIERQIKALKKGPQIVVGTPGRVIDHLNRRTLKTDGIHTLILDEADEMMNMGFIDDMRFIMDKIPAVQRQTMLFSATMPKAIQALVQQFMKSPKIIKTMNNEMSDPQIEEFYTIVKELEKFDTFTNFLDVHQPELAIVFGRTKRRVDELTSALISKGYKAEGLHGDITQAKRLEVLKKFKNDQINILVATDVAARGLDISGVSHVYNFDIPQDTESYTHRIGRTGRAGKEGIAVTFVNPIEMDYIRQIEDANGRKMSALRPPHRKEVLQAREDDIKEKVENWMSKESESRLKRISTELLNEYNDVDLVAALLQELVEANDEVEVQLTFEKPLSRKGRNGKPSGSRNRNSKRGNPKFDSKSKRSKGYSSKKKSTKKFDRKEKSSGGSRPMKGRTFADHQK
notes: DEAD-box RNA helicase CshA, Staphylococcus aureus, 506 residues by the printed domain limits; also called CshALB; source: S. aureus LAC*, expressed from pAP118 with Atet, in cells

Tests used:
GST-CshA = biological target: T2, GST-CshA (S. aureus, UniProt Q2FF45 1-506); assay: pull-down; 1 uM GST or GST fusion coupled to glutathione beads; incubated with His-tagged protein (printed 1 pM) in 25 mM Tris pH 7.5, 150 mM NaCl, 5 mM MgCl2, 0.5% Triton X-100 at 4°C overnight; eluted with glutathione; blot with anti-His-HRP; conditions: both partners purified
T2 construct: DEAD-box RNA helicase CshA, Staphylococcus aureus; also called GST-tagged CshA; not shown: GST, N-terminal, kept

[1] = biological target: T1, Era fused to SB (small bit of …); assay: split reporter (BiFC, NanoBiT); split luciferase (SB and LB fusions from pAP118) in S. aureus LAC*; 100 ng/ml Atet for 90 min, normalised to OD600 0.1, Nano-Glo; luminescence relative to a control with one fusion only; conditions: partners not purified

| Binder | binding result (GST-CshA) | fold increase in luciferase activity [1] [fold] |
| --- | --- | --- |
| B1 | binds |  |
| B2 |  | 4 |
